In data set [1] the test system is C4-2 cells. The data set can be described thus: Cytotoxicity of anti-STEAP2 ADCs, payloads and reference compounds in C4-2 cells. The format is cell-based, human. Conditions: at maximum concentration tested. How it is done:
(§1) To test the ability of the disclosed tubulysin payloads to kill human cell lines, an in vitro cytotoxicity assay was performed. In vitro cytotoxicity of the disclosed payloads, as well as reference compounds, were evaluated using the CellTiter-Glo Assay Kit (Promega, Cat #G7573), in which the quantity of ATP present is used to determine the number of viable cells in culture. For the assay, C4-2, HEK293, or T47D cells were seeded at 4000 cells/well on Nunclon white 96-well plates in complete growth medium (DME high glucose:Ham's F12 at 4:1, 10% FBS, 100 units/ml Penicillin, 100 ug/ml streptomycin, 53 ug/ml glutatmine, 10 ug/ml insulin, 220 ng/ml biotin, 12.5 pg/ml T3, 12.5 ug/ml Adenine, 4 ug/ml transferrin for C42 cells; DME high glucose, 10% FBS, 100 units/ml Penicillin, 100 ug/ml streptomycin, 53 ug/ml glutatmine for HEK293; RPMI, 10% FBS, 100 units/ml Penicillin, 100 ug/ml streptomycin, 53 ug/ml glutatmine, 10 ug/ml insulin, 10 mM HEPEs, 200 nM Sodium Pyruvate for T47D cells) and grown overnight at 37° C. in 5% CO2. For cell viability curves, 1:3 serially diluted payloads were added to the cells at final concentrations ranging from 100 nM to […], including a no treatment control group, and were then incubated for 5 days. After the 5-day incubation, cells were incubated at room temperature with 100 μL of CellTiter-Glo reagents for 10 minutes. Relative luminescence units (RLU) were determined on a Victor plate reader (PerkinElmer). The IC50 values were determined from a four-parameter logistic equation over a 10-point response curve (GraphPad Prism). All IC50 values are expressed in molar (M) concentration. The percent cell killing (% kill) at the maximum concentration tested was estimated from the following formula (100−% viable cells). Averages±standard deviation (SD) are included where replicate experiments were performed.
To further test the ability of the disclosed tubulysin payloads, reference compounds, and antibody drug conjugates using these payloads, a cytotoxicity assay was performed using C4-2 cells as described in this example (see above). For these studies, anti-STEAP2 antibodies were conjugated to select tubulysins payloads, and the compounds were tested at concentrations starting at 100 nM with 3-fold serial dilution. All IC50 values are expressed in nM concentration and the percent cell killing at the maximum concentration tested was estimated from the following formula (100−% viable cells).

Data set [2] has as its target T1, STEAP2 endogenously expressed on C4-2 prostate cancer cells (human, UniProt Q8NFT2 1-490).
T1 sequence (looked up): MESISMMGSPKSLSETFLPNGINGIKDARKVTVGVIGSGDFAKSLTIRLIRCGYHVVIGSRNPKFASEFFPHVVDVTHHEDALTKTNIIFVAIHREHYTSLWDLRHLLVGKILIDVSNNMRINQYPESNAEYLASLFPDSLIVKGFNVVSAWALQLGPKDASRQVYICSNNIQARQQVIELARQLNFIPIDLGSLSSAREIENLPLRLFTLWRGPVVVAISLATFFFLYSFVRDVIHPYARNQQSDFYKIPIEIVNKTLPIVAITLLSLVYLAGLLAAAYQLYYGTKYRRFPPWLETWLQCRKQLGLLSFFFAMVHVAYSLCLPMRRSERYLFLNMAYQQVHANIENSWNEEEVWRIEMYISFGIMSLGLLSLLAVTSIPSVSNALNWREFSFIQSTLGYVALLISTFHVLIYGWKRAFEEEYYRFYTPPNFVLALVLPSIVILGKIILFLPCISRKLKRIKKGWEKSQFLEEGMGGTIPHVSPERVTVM
The data set can be described thus: cell-based or functional assay.

Data set [3] can be described thus: In vitro plasma stability of ADCs (DAR by LC-MS), rat plasma. Conditions: 37° C., 50 μg/mL, DAR at 0 hr 3.8 (LP3 ADC), 4.0 (LP4 ADC), acetyl-hydrolyzed species counted as loss of drug. In kind it is in vitro ADME. The method, then:
(§2) To determine the plasma stability of representative ADCs containing the tubulysin payloads, ADCs were incubated in vitro with plasma from different species, and the DAR was evaluated after incubation at physiological temperature (37° C.) for 3 days.
(§3) For the assay, each ADC sample (anti-PRLR antibody-LP3 or anti-PRLR antibody-LP4) in PBS buffer was added to fresh pooled male mouse, cynomologus monkey, rat, or human plasma, separately, at a final concentration of 50 μg/mL in a 96-well plate, and subsequently incubated at 37° C. for 72 hours. After incubation, each sample (100 μL final volume) was individually frozen at −80° C. until analysis.
(§4) Affinity capture of the ADCs from the plasma samples was carried out on a KingFisher 96 magnetic particle processor (Thermo Electron). First, biotinylated extracellular domain of human PRLR expressed with a myc-myc hexahistidine tag (hPRLR ecto-MMH; SEQ ID NO: 17;100 μg/mL) was immobilized on streptavidin paramagnetic beads (In vitrogen, Cat #60210). Each plasma sample containing tubulysin ADCs (100 μL) was mixed at 600 rpm with 100 μL of the beads (the commercial beads come in volume) at room temperature for 2 hours in a 96-well plate. The beads were then washed three times with 600 μL of HBS-EP (GE healthcare, Cat #BR100188), once with 600 μL of H2O, and then once with 600 μL of 10% acetonitrile in water. […]

Data set [4] is described as follows: In vitro plasma stability of ADCs (DAR by LC-MS), cynomolgus monkey plasma. The format is in vitro ADME. Conditions: 37° C., 50 μg/mL, DAR at 0 hr 3.8 (LP3 ADC), 4.0 (LP4 ADC), acetyl-hydrolyzed species counted as loss of drug. How it is done: as §2, §3, §4
Data set [5] is described as follows: In vitro plasma stability of ADCs (DAR by LC-MS), mouse plasma. The format is in vitro ADME. Conditions: 37° C., 50 μg/mL, DAR at 0 hr 3.8 (LP3 ADC), 4.0 (LP4 ADC), acetyl-hydrolyzed species counted as loss of drug. The method, then: as §2, §3, §4
Data set [6] concerns HCT15/PRLR cells. The data set can be described thus: Cytotoxicity of anti-PRLR tubulysin ADCs and payloads in HCT15/PRLR cells with or without Verapamil. In kind it is cell-based, human. Conditions: at maximum concentration tested; for % kill on HCT15/PRLR w/ Verapamil: with Verapamil; for % kill on HCT15/PRLR w/o Verapamil: without Verapamil. How it is done:
as §1
Bioassays were developed to assess the efficacy of an anti-PRLR antibody conjugated with the disclosed tubulysin payloads and reference payloads. It was developed to assess the activity of tubulysin payloads after internalization of an anti-PRLR-tubulysin ADC into cells, release of the payload, and subsequent cytotoxicity. For this assay, a HCT15 line was engineered to express human full length PRLR (accession #NP_000940.1). The resulting stable cell line is referred to herein as HCT15/PRLR. In vitro cytotoxicity of the disclosed payloads, reference compounds, and tested ADCs were evaluated similarly as described in this example using HCT15/PRLR cells with or without […] of Verapamil diluted in normal culture medium. The compounds were tested at concentrations starting at 100 nM with 3-fold serial dilution. All IC50 values are expressed in nM concentration and the percent cell killing (% kill) at the maximum concentration tested was estimated from the following formula (100−% viable cells).

A short description of data set [7]: In vitro plasma stability of ADCs (DAR by LC-MS), human plasma. The format is in vitro ADME. Conditions: 37° C., 50 μg/mL, DAR at 0 hr 3.8 (LP3 ADC), 4.0 (LP4 ADC), acetyl-hydrolyzed species counted as loss of drug. The method, then:
as §2, §3, §4

B1: anti-STEAP2-LP5 (antibody, V domains shown)
VH: QVQLVESGGGVVQPGRSLRLSCVASGFTISSYGMNWVRQAPGKGLEWVAVISYDGGNKYSVDSVKGRFTISRDNSKNTLYLQMNSLRAEDSAVYYCARGRYFDLWGRGTLVTVSS
VL: DIQMTQSPSTLSASVGDRVTITCRASQSISSWLAWYQQKPGRAPNLLISKASSLKSGVPSRFSGSGSGTEFTLTVSSLQPDDFATYYCQQYYSYSYTFGQGTKLEIK
modifications: linker-payload LP5 (DIBAC-suc-PEG4-VA, payload IVd) conjugated; site and DAR of this conjugate not printed (the site-specific procedure uses N297Q, EU numbering, with azido-PEG3-amine on glutamines)
Regarding B1, the “% kill” value in data set [1] amounted to 96%. Further, the “IC50, cytotoxicity in the C4-2 cell based assay (CellTiter-Glo)” value in data set [2] stood at 280 pM.

B2: Anti-PRLR-LP3 (conjugate)
VH: QVQLVESGGGVVQPGRSLRLSCGASGFTFRNYGMQWVRQGPGKGLEWVTLISFDGNDKYYADSVKGRFTISRDNSKNTLFLQMNSLRTEDTAVYYCARGGDFDYWGQGTLVTVSS
VL: DIQMTQSPSSLSASVGDRVTITCRASQDIRKDLGWYQQKPGKAPKRLIYAASSLHSGVPSRFSGSGSGTEFTLTISSLQPEDFATYYCLQHNSYPMYTFGQGTKLEIK
modifications: non-natural residues
Take B2: the “DAR after 72 hours of incubation” value in data set [3] was 2.7; in data set [4], 2.7; in data set [5], 2.7; in data set [7], 3.0. Also, in data set [6], the “% kill on HCT15/PRLR w/ Verapamil” value was found to be 91%. Also, the “% kill on HCT15/PRLR w/o Verapamil” value in data set [6] stood at 90%.

B3: Anti-PRLR-LP4 (conjugate)
VH: B2 VH
VL: B2 VL
modifications: non-natural residues
Consider B3, for which the “DAR after 72 hours of incubation” value is 2.6 in data set [3], 2.7 in data set [4], 2.7 in data set [5] and 3.0 in data set [7]. The “% kill on HCT15/PRLR w/ Verapamil” value in data set [6] worked out at 91%. For the same molecule, the “% kill on HCT15/PRLR w/o Verapamil” value in data set [6] was determined as 65%.

Values taken from US12144864B2, “Tubulysins and protein-tubulysin conjugates” (Regeneron Pharmaceuticals, Inc., priority 2018, dated 2024).
